Results taken from patent US20130251703A1 (Novartis, published 2013).
Numbering of substitutions follows the chain as printed.

B1: MOR13657 (antibody, human IgG1, lambda, V domains shown)
VH: QVQLVQSGAEVKKPGASVKVSCKASGYTFTSYDIHWVRQAPGQGLEWMGRIDPYSGNTNYAQKFQGRVTMTRDTSISTAYMELSRLRSEDTAVYYCARGSFYTRDSYFDVWGQGTLVTVSS
VL: DIALTQPASVSGSPGQSITISCTGTSSDVGTYNQVSWYQQHPGKAPKLMIYGVSKRPSGVSNRFSGSKSGNTASLTISGLQAEDEADYYCSARDGWSEYVFGGGTKLTVLG
notes: Tested as IgG
B2: MOR13668 (antibody, human IgG1, lambda, V domains shown)
VH: B1 VH
VL: B1 VL with S91Q, A92V, R93W, G95S, W96D, S97Q, E98A, Y99M
B3: MOR12920 (antibody, human IgG1, lambda, V domains shown)
VH: B1 VH with S31G, D33Y, I34M, R50D, D52E, S55H, N57K, T58P, N59L
VL: B1 VL with K44N, A92S, G95L, W96I, S97G, E98H
B4: MOR13656 (antibody, human IgG1, lambda, V domains shown)
VH: B1 VH
VL: DIALTQPASVSGSPGQSITISCTGTSSDVGTYNQVSWYQQHPGKAPKLMIYGVSKRPSGVSNRFSGSKSGNTASLTISGLQAEDEADYYCAVRDSVWHVFGGGTKLTVLG
B5: MOR12922 (antibody, human IgG1, lambda, V domains shown)
VH: B1 VH with S31G, D33Y, I34M, R50V, N57W, N59E
VL: B1 VL with A92S, G95L, W96I, S97G, E98H
B6: MOR13662 (antibody, human IgG1, lambda, V domains shown)
VH: B1 VH
VL: DIALTQPASVSGSPGQSITISCTGTSSDVGTYNQVSWYQQHPGKAPKLMIYGVSKRPSGVSNRFSGSKSGNTASLTISGLQAEDEADYYCYSRAKTHWTDVFGGGTKLTVLG
B7: MOR13660 (antibody, human IgG1, lambda, V domains shown)
VH: B1 VH
VL: B4 VL with D94G, V96Q, W97T, H98L
B8: MOR13661 (antibody, human IgG1, lambda, V domains shown)
VH: B1 VH
VL: B4 VL with A91G, V92S, V96W, W97A
B9: MOR13664 (antibody, human IgG1, lambda, V domains shown)
VH: B1 VH
VL: B1 VL with R93Y, G95A, W96S, S97T, E98Q, Y99V
B10: MOR13667 (antibody, human IgG1, lambda, V domains shown)
VH: B1 VH
VL: B1 VL with S91Q, R93W, G95Y, W96R, S97Q, E98T, Y99I
B11: MOR13669 (antibody, human IgG1, lambda, V domains shown)
VH: B1 VH
VL: B6 VL with Y91S, S92T, R93A, A94T, K95A, T96M, H97T, W98V, T99S, D100L
B12: MOR13665 (antibody, human IgG1, lambda, V domains shown)
VH: B1 VH
VL: B4 VL with A91Q, V92S, R93A, D94A, S95I, V96A, W97T, H98S
B13: MOR13670 (antibody, human IgG1, lambda, V domains shown)
VH: B1 VH
VL: B1 VL with S91Q, A92V, R93A, G95Q, W96G, S97W, E98H, Y99Q
B14: MOR13663 (antibody, human IgG1, lambda, V domains shown)
VH: B1 VH
VL: B1 VL with A92V, R93W, D94T, G95S, W96I, S97K, E98V, Y99F
B15: MOR13655 (antibody, human IgG1, lambda, V domains shown)
VH: B1 VH
VL: B6 VL with Y91S, R93A, A94T, K95Q, T96K, H97P, W98D, T99V, D100T
notes: Tested as IgG
B16: MOR13659 (antibody, human IgG1, lambda, V domains shown)
VH: B1 VH
VL: B4 VL with A91G, V92S, D94T, V96H, W97N, H98W
B17: MOR13654 (antibody, human IgG1, lambda, V domains shown)
VH: B1 VH
VL: B6 VL with Y91Q, A94G, K95E, T96Y, H97R, W98P, T99G, D100W
notes: Tested as IgG
B18: MOR13658 (antibody, human IgG1, lambda, V domains shown)
VH: B1 VH
VL: B1 VL with S91A, A92S, R93A, G95H, W96S, S97Y, E98H, Y99T
notes: Tested as IgG
B19: MOR13666 (antibody, human IgG1, lambda, V domains shown)
VH: B1 VH
VL: B1 VL with A92T, R93T, D94T, G95Y, W96S, S97F, E98H, Y99M
notes: Tested as IgG

Each binder was assayed against T1, human HER3 endogenously expressed on human cancer cells (SK-Br-3, BT-474, MCF7) (human, UniProt P21860 20-1342) (assay: cell-based or functional assay).

| Binder | BT474 pHER3 % inhibition [%] | BT474 pHER3 IC50 [pM] | MCF7 pHER3 % inhibition [%] | MCF7 pHER3 IC50 [pM] | SK-Br-3 pHER3 % inhibition [%] | SK-Br-3 pHER3 IC50 [pM] |
| --- | --- | --- | --- | --- | --- | --- |
| B1 | 63 | 372 | 75 | 283 | 71 | 142 |
| B2 |  |  | 77 | 1640 | 58 | 657 |
| B3 | 57 | 2020 | 66 | 3070 | 57 | 851 |
| B4 |  |  | 73 | 504 | 60 | 86 |
| B5 | 58 | 702 | 62 | 788 | 64 | 81 |
| B6 |  |  | 52 | 550 | 56 | 331 |
| B7 |  |  | 49 | 533 | 54 | 188 |
| B8 |  |  | 55 | 649 | 55 | 421 |
| B9 |  |  | 55 | 480 | 57 | 388 |
| B10 |  |  | 72 | 603 | 59 | 267 |
| B11 |  |  | 66 |  | 58 | 743 |
| B12 |  |  | 62 | 795 | 59 | 546 |
| B13 |  |  | 69 | 643 | 60 | 730 |
| B14 |  |  | 58 | 449 | 56 | 290 |
| B15 | 61 | 19 | 80 | 149 | 69 | 90 |
| B16 |  |  | 66 | 505 | 51 | 277 |
| B17 | 61 | 195 | 77 | 331 | 69 | 182 |
| B18 | 67 | 571 | 83 | 459 | 74 | 347 |
| B19 | 65 | 420 | 73 | 168 | 69 | 166 |

Target: T1, human HER3 endogenously expressed on …
Test: cell-based or functional assay
Remark: another data set of the same source

| Binder | BT-474 pAkt % inhibition [%] | BT-474 pAkt IC50 [pM] | MCF7 pAkt % inhibition [%] | MCF7 pAkt IC50 [pM] | SK-Br-3 pAkt % inhibition [%] | SK-Br-3 pAkt IC50 [pM] |
| --- | --- | --- | --- | --- | --- | --- |
| B1 | 53 | 586 | 75 | 385 | 91 | 33 |
| B15 | 50 |  | 79 | 251 | 86 | 62 |
| B17 | 58 | 142 | 72 | 244 | 92 | 89 |
| B18 | 56 | 461 | 81 | 341 | 92 | 172 |
| B19 | 50 | 275 | 72 | 49 | 90 | 78 |

Target: T1, human HER3 endogenously expressed on …
Test: cell-based or functional assay
Remark: another data set of the same source

| Binder | BT-474 proliferation % inhibition [%] | BT-474 proliferation IC50 [pM] | SK-Br-3 proliferation % inhibition [%] | SK-Br-3 proliferation IC50 [pM] | MCF7 proliferation % inhibition [%] | MCF7 proliferation IC50 [pM] |
| --- | --- | --- | --- | --- | --- | --- |
| B1 | 30 | 473 | 39 | 179 |  |  |
| B3 |  |  | 32 | 2910 | 22 | 1920 |
| B5 |  |  | 36 | 709 | 27 | 467 |
| B15 | 31 | 141 | 39 | 74 | 46 | 86 |
| B17 | 27 | 632 | 34 | 136 |  |  |
| B18 | 34 | 423 | 42 | 191 | 49 | 174 |
| B19 | 31 | 1120 | 39 | 870 |  |  |

The binders below were run against T2, Hu HER3: CD33-[Human HER3, residues 20-640]-TAG (human, UniProt P21860 20-640) (assay: solution equilibrium titration (SET), IgG, ECL read-out).
T2 construct: also called hu HER3-Tag; HER3-Tag; not shown: C-terminal TAG (e.g. FLAG TAG)

| Binder | Kd [nM] |
| --- | --- |
| B1 | 0.087 |
| B15 | 0.066 |
| B17 | 0.11 |
| B18 | 0.027 |
| B19 | 0.15 |
